The nature of assay [1]: Single allergen subcutaneous immunotherapy in walnut and hazelnut allergic subjects. In kind it is in vivo.
The subject of the next assay is dendritic cells. Briefly: Mouse study: CD4+ T cells from peptide-dosed mice incubated with antigen-loaded dendritic cells. In kind it is cell-based. The following applies: 50 ug peptide orally for 4 weeks; tetanus toxoid as control. Here is the method: Mouse Study: A composition comprising 50 ug of the cross-reactive peptide comprising the MHC-II-binding T-cell epitope 5′-[…]-3′ and a pharmaceutical acceptable carrier is administered orally to mice for 4 weeks. Two weeks after the last dose, blood is drawn from a peripheral vein and CD4+ T cells are purified by cell sorting on magnetic beads. CD4+ T-cells are added to culture medium in which histocompatible dendritic cells, used as antigen presenting cells, are incubated with either the peptide sequence or with tetanus toxoid as a control for 2 hr at room temperature. The cells are then washed and purified CD4+ T-cells are added to culture medium. […] Incubation of CD4+ T-cells with dendritic cells loaded with the hazelnut Cor_i_9 antigen results in dendritic cell apoptosis.

The subject of the next assay is IgE. As to the kind of experiment: ALEX2 chip ELISA-based multiplex assay for IgE binding to allergens. On the set-up: species or system human. The text has this:
In another example, forty-two human serum samples with self-reported clinical allergies were obtained and analyzed in triplicate on an ALEX2 chip (developed by Macro Array Diagnostics), which enables an ELISA-based multiplex assay for the detection of IgE adsorption to allergen components and extracts. […] The assay detects the binding of IgE to these allergens in an ELISA-based multiplex fashion. The dynamic range of the chip spans a little over two orders of magnitude, 0.3-50 kUA/L.

In the case of HWNLNAHSVVYALRG, the “allergic reaction after immunotherapy” value in assay [1] was “fail to react to both walnuts and hazelnuts”. In addition, the “apoptosis of antigen-presenting dendritic cells by CD4+ T cells” value in the assay on dendritic cells was “induce apoptosis of dendritic cells presenting the Cor_i_9 antigen”.

B1: Bet v 1: Silver birch allergen, Bet v 1 family, recombinant allergen on ALEX2 chip (protein)
chain: GVFNYETETTSVIPAARLFKAFILDGDNLFPKVAPQAISSVENIEGNGGPGTIKKISFPEGFPFKYVKDRVDEVDHTNFKYNYSVIEGGPIGDTLEKISNEIKIVATPDGGSILKISNKYHTKGDHEVKAEQVKASKEMGETLLRAVESYLLAHSDAYN
B1: in the assay with IgE (of forty two human serum samples run on the ALEX2 chip), the “samples with a positive value for the allergen” value came out at 22 samples.

B2: Mal d 1: Apple allergen, Bet v 1 family, on ALEX2 chip (protein, UniProt P43211 2-159, looked up)
Major allergen Mal d 1: GVYTFENEFTSEIPPSRLFKAFVLDADNLIPKIAPQAIKQAEILEGNGGPGTIKKITFGEGSQYGYVKHRIDSIDEASYSYSYTLIEGDALTDTIEKISYETKLVACGSGSTIKSISHYHTKGNIEIKEEHVKVGKEKAHGLFKLIESYLKDHPDAYN
With B2, the “Pearson Correlation coefficient based on ALEX data” value in the assay with IgE (Bet v 1 family, correlation of IgE levels with Bet v 1, 22 Bet v 1-positive human serum samples) is listed as 0.62.

B3: Derp: European house dust mite allergen, Tropomyosin family, on ALEX2 chip (protein, UniProt O18416 1-284, looked up)
Tropomyosin: MEAIKNKMQAMKLEKDNAIDRAEIAEQKARDANLRAEKSEEEVRALQKKIQQIENELDQVQEQLSAANTKLEEKEKALQTAEGDVAALNRRIQLIEEDLERSEERLKIATAKLEEASQSADESERMRKMLEHRSITDEERMEGLENQLKEARMMAEDADRKYDEVARKLAMVEADLERAEERAETGESKIVELEEELRVVGNNLKSLEVSEEKAQQREEAHEQQIRIMTTKLKEAEARAEFAERSVQKLQKEVGRLEDELVHEKEKYKSISDELDQTFAELTGY
modifications: tropomyosin
notes: European house dust mite allergen, Tropomyosin family, on ALEX2 chip
With B3, in the assay with IgE (Tropomyosin family, correlation of IgE levels with Penm1), the “Pearson Correlation coefficient based on ALEX data” value was 0.99.

Source of the values: patent publication US20240230671A9, “COMPOSITIONS AND METHODS FOR IDENTIFICATION OF CROSS-REACTIVE ALLERGENIC PROTEINS AND TREATMENT OF ALLERGIES” (Alladapt Immunotherapeutics, Inc., priority 2021, published 2024).
